Reference: patent US20220340678A1

Experiments:
[1] = target: p35-MSA fusion protein (human; mouse) (UniProt P29459); test: BLI (Octet), biotinylated p35-MSA against p40-fab, 47 hr at 37 C
[2] = target: p35-MSA fusion protein (human; mouse) (UniProt P29459); test: BLI (Octet), biotinylated p35-MSA against p40-fab, 24 hr at 37 C
[3] = target: p35-MSA fusion protein (human; mouse) (UniProt P29459); test: BLI (Octet), biotinylated p35-MSA against p40-fab, 4 hr at 37 C
[4] = target: p35-MSA fusion protein (human; mouse) (UniProt P29459); test: BLI (Octet), biotinylated p35-MSA against p40-fab, 0 hr at 37 C
[5] = target: p40-Fab fusion protein (human) (UniProt P29460); test: cell-based or functional assay
[6] = target: p40 without a fusion partner (human) (UniProt P29460); test: cell-based or functional assay
[7] = target: p40-IgG (anti-uPAR M37 IgG) (human) (UniProt P29460); test: cell-based or functional assay
[8] = target: IL-12 receptor on HEK-BLUE IL-12 cells; test: cell-based or functional assay
[9] = target: GM-CSF receptor on U937 cells (human); test: cell-based or functional assay

Chain of p40-IgG (anti-uPAR M37 IgG) (human) (P29460 23-328): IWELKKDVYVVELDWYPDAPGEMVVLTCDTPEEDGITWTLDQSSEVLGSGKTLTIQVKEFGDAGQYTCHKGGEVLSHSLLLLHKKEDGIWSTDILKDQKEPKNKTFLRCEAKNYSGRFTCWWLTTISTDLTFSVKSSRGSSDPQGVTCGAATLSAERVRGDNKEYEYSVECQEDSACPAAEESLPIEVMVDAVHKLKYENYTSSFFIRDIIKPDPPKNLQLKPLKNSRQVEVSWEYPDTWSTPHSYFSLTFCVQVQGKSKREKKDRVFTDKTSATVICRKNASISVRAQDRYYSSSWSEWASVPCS
Chain of p40-Fab fusion protein (P29460 23-328): as above
Chain of p40-Fab fusion protein (human) (P29460 23-328): as above
Chain of p35-MSA fusion protein (human; mouse) (P29459 23-219): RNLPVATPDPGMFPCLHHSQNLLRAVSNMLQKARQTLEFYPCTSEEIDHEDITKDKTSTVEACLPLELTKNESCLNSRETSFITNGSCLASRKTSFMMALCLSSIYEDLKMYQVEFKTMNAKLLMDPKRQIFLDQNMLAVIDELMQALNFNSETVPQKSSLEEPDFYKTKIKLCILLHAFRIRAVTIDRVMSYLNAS

## p40-Fab fusion protein (from UniProt P29460 23-328)
[1]
  Kd: 10.5 nM
  koff: 0.000376 s⁻¹
  kon: 35800 M⁻¹ s⁻¹
[2]
  Kd: 11.1 nM
  koff: 0.000422 s⁻¹
  kon: 38100 M⁻¹ s⁻¹
[3]
  Kd: 7.54 nM
  koff: 0.000385 s⁻¹
  kon: 51100 M⁻¹ s⁻¹
[4]
  Kd: 7.82 nM
  koff: 0.000462 s⁻¹
  kon: 59100 M⁻¹ s⁻¹

## p35-MSA fusion protein (from UniProt P29459 23-219)
[5]
  EC50, % pStat4 formation in CD4+ T cells: 0.708 nM
  EC50, % pStat4 formation in CD8+ T cells: 0.912 nM
  EC50, IFN gamma production by T cells: 0.559 nM
  EC50 fold change relative to scIL-12, IFN gamma production: 109 fold
  EC50 fold change relative to scIL-12, pStat4 in CD4+ T cells: 13.8 fold
  EC50 fold change relative to scIL-12, pStat4 in CD8+ T cells: 12.2 fold
[6]
  EC50, % pStat4 formation in CD4+ T cells: 0.842 nM
  EC50, % pStat4 formation in CD8+ T cells: 1.06 nM
  EC50, IFN gamma production by T cells: 0.657 nM
  EC50 fold change relative to scIL-12, IFN gamma production: 128 fold
  EC50 fold change relative to scIL-12, pStat4 in CD4+ T cells: 16.4 fold
  EC50 fold change relative to scIL-12, pStat4 in CD8+ T cells: 14.2 fold
[7]
  EC50, % pStat4 formation in CD4+ T cells: 0.173 nM
  EC50, % pStat4 formation in CD8+ T cells: 0.571 nM
  EC50, IFN gamma production by T cells: 0.403 nM
  EC50 fold change relative to scIL-12, IFN gamma production: 78.2 fold
  EC50 fold change relative to scIL-12, pStat4 in CD4+ T cells: 3.37 fold
  EC50 fold change relative to scIL-12, pStat4 in CD8+ T cells: 7.66 fold

## wild-type human IL-12 (R&D Systems, Cat. No. 219-IL-005/CF) (from UniProt P29459 23-219; P29460 23-328) (ligand)
[8]
  potency, SEAP reporter in HEK-BLUE IL-12 cells: 0.018 nM

## recombinant human GM-CSF (R&D Systems, cat # 215-GM-050/CF) (from UniProt P04141 18-144) (ligand)
[9]
  pSTAT5 EC50, U937 cells, no competitor: 18.6 pM
